One molecule from paper PMC2645917 (2008) can be followed below.

As usually defined, the IC50 is the concentration needed to halve the response being measured.

The experiment concerns the target F29 7-36 (Homo sapiens, UniProt P01275, Ile29 replaced by hexafluoroleucine, C-terminal amide). Description: competition binding with [125I]-Ex.

B1: GLP-1 receptor (protein)
chain: RPQGATVSLWETVQKWREYRRQCQRSLTEDPPPATDLFCNRTFDEYACWPDGEPGSFVNVSCPWYLPWASSVPQGHVYRFCTAEGLWLQKDNSSLPWRDLSECEESKRGERSSPEEQLLFLYIIYTVGYALSFSALVIASAILLGFRHLHCTRNYIHLNLFASFILRALSVFIKDAALKWMYSTAAQQHQWDGLLSYQDSLSCRLVFLLMQYCVAANYYWLLVEGVYLYTLLAFSVLSEQWIFRLYVSIGWGVPLLFVVPWGIVKYLYEDEGCWTRNSNMNYWLIIRLPILFAIGVNFLIFVRVICIVVSKLKANLMCKTDIKCRLAKSTLTLIPLLGTHEVIFAFVMDEHARGTLRFIKLFTELSFTSFQGLMVAILYCFVNNEVQLEFRKSWERWRLEHLHIQRDSSMKPLKCPTSSLSSGATAGSSMYTATCQASCS
Regarding B1, the IC50 is 13.4 nM.
